Series [1] concerns the target T1, t-PA-mediated plasminogen activation (Homo sapiens, UniProt P00750).
T1 construct: purchased Calbiochem
The experiment in a line: t-PA-mediated plasminogen conversion kinetics with and without S100A4 (Example 12). In kind it is biochemical. The following applies: for acceleration of plasmin formation (K units): 1 μM S100A4, 100 nM plasminogen. As for the experimental part:
The effects of peptide SEQ ID 6, peptide SEQ ID 38 and chimera SEQ ID 39 on acceleration oft-PA-mediated conversion of plasminogen to plasmin induced by S100A4 were measured. The kinetics of t-PA-mediated plasminogen activation were determined by measuring the amidolytic activity of plasmin formed during activation of plasminogen. All the experiments were done in 100 μl volume in 96-well plates in triplicates. Glu-plasminogen (Calbiochem) at the concentration of 100 nM was preincubated at 25° C. for 1 h in the presence or absence of 1 μM recombinant S100A4 in a buffer consisting of 50 mM Tris-HCl, pH 7.4, 100 mM NaCl and 5 mM CaCl2 or 5 mM EGTA. In some experiments, different concentrations of peptides or chimera were preincubated together with proteins. The reaction was initiated by addition of 5 nM t-PA (Calbiochem) and 125 μM chromogenic plasmin substrate, Chromozym PL (Roche). The reactions were monitored at 405 nm for 1.5 h in a SPECTRAmax PLUS^384 microplate spectrophotometer (Molecular Devices) under control of the SOFTmax PRO kinetic program (Molecular Devices). The initial rates of plasmin generation, during the first 10-15 min, were calculated using linear regression analysis of plots of A405 nm versus time 2. The initial rates of plasmin generation were reported in units (K) of A405 nm/min^2×10^3. […] The titration data were analyzed with the four-parameter logistic equation K=(A−D)/(1+(x/C)^B)D. If A, asymptotic minimum, =0, this equation is converted to the Michaelis-Menten equation K=D/(1+(C/[S])^B), where [S] is substrate concentration, D=Vmax, C=Km, and B is the Hill coefficient.
The addition of S100A4 to basal reaction (t-PA plus plasminogen) produced a significant increase in the plasminogen conversion rate. […] The stimulation of the plasminogen conversion by S100A4 was concentration-dependent with the half-maximal effect at 2.4 μM.
The kinetic parameters of t-PA-mediated plasminogen conversion were evaluated in the presence and absence of S100A4 as a function of plasminogen concentrations ranging from 3 nM to 3 μM.

Series [2] concerns Human cerebral endothelial cells (HCEC). The experiment in a line: Capillary tube formation in Matrigel, S100A4 induced angiogenesis. Format: cell-based. The following applies: primary HCEC grown in Matrigel. From the text:
Human cerebral endothelial cells (HCEC) were isolated using previously described protocols (Stanimirovic, D., P. Morley, et al. (1996). “Angiotensin II-induced fluid phase endocytosis in human cerebromicrovascular endothelial cells is regulated by the inositol-phosphate signaling pathway.” J Cell Physiol 169(3): 455-67.). Purity of HCEC cultures generated by these procedures was routinely assessed by the immunocytochemical staining for Factor VIII-related antigen and the lack of staining for smooth muscle β-actin, and is estimated to be >95%. The morphological, phenotypic, biochemical and functional characteristics of these HCEC cultures have been described in detail previously (Muruganandam, A., L. M Herx, et al. (1997). “Development of immortalized human cerebromicrovascular endothelial cell line as an in vitro model of the human blood-brain barrier.” Faseb J 11(13): 1187-97).
HCEC were seeded (8×10^4 cells) on a semi-solid basement membrane matrix, Matrigel™ (Collaborative Biomedical Products, Bedford, Mass.)-coated 24-well plates and exposed to serum-free media containing various treatments. […] Confocal apertures for each recorded wavelength were adjusted to a full width half maximum of 20 μm. […] Eight to 32 individual optical sections were collected and the average was calculated. […]

The target in the next series is T2, annexin II (Homo sapiens, UniProt P07355).
T2 construct: GST (N); made in house; host or cells: E. coli ER2507
The experiment in a line: Immunoprecipitation analysis of S100A4-annexin II complex formation. Format: binding. The following applies: monomer and aggregated forms, in Ca2+ or EGTA. On the procedure: S100A4 and annexin II proteins, both at the concentrations of 1.5 mg/ml, were pre-incubated overnight at 37° C. in TBS containing either 5 mM CaCl2, or 5 mM EGTA.
The formation of the S100A4-annexin II complex was analyzed by immunoprecipitation with an anti-S100A4 rabbit polyclonal antibody. To this end, the reaction mixture was incubated with the antibody (10 μg/ml) for 1 h at 37° C. and then precipitated by adding protein G-sepharose beads (Affi-Gel; Bio-Rad Laboratories, Hercules, Calif.) and incubating the resulted mixture for 1 h at room temperature. After that the beads were washed 3 times by 500 ul of TBS, boiled in Laemmli sample buffer for 5 min, and then loaded on SDS-PAAG. The proteins were then electro-transferred to a nitrocellulose membrane. The Western blot analysis was performed using anti-Annexin II antibody (BD Pharmingen) used at 1:5000 dilution and sheep anti-mouse antibody conjugated to horseradish peroxidase (Amersham Pharmacia Biotech, Piscataway, N.J.) used at 1:10000 dilution, followed visualization of the Annexin II bands by chemiluminescence.
However, the complex formation is more efficient in the case when the aggregated S100A4 are used. Additionally, the interaction between S100A4 (both monomer and oligomer) and annexin II is more efficient in the absence of Ca2+ (EGTA conditions) compared to that observed in the presence of Ca2+.

Broadly, the Km is the concentration of substrate that gives half-maximal velocity.

T1 sequence (P00750 36-562): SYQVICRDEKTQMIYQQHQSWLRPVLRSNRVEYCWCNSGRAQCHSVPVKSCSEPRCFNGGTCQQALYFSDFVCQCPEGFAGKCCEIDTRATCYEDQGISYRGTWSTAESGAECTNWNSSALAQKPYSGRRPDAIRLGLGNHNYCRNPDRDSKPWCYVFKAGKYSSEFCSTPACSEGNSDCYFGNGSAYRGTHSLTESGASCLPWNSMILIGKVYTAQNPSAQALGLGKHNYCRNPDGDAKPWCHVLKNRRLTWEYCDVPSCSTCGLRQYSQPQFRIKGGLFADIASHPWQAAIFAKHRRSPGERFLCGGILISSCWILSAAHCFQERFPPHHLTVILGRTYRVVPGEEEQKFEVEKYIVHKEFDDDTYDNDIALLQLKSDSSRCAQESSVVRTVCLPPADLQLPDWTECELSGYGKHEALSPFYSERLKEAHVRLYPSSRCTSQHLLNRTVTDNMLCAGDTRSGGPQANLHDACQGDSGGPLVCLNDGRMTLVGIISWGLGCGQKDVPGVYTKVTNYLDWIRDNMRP
T2 sequence (P07355 2-339 V98L): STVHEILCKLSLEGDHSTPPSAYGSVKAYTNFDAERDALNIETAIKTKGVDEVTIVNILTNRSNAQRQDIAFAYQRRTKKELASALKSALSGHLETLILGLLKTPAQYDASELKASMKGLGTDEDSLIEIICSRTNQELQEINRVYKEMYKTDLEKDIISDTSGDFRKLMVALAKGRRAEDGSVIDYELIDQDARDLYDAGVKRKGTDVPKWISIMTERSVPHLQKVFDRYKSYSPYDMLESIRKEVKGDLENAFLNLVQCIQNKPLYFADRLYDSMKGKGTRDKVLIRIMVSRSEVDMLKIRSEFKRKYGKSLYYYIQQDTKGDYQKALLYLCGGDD
T2 sequence (P26447 whole entry partner): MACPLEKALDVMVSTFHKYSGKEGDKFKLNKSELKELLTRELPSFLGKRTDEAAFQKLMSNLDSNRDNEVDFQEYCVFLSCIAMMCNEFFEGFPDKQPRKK

With “S100A4: recombinant human S100A4 protein cloned from human placenta total RNA, Ca-binding protein of S100 family”, the EC50 in series [1] (concentration-dependent stimulation, read-out: half-maximal effect of stimulation of plasminogen conversion) amounted to 2400 nM. In addition, in series [1] (no t-PA), the “plasmin generation in the absence of t-PA” value was “plasmin generation did not take place”. For the same substance, the Michaelis-Menten constant (Km) in series [1] (plasminogen 3 nM to 3 μM, read-out: Km of the t-PA-mediated plasminogen conversion) is 0.059 µM. The “acceleration of plasmin formation (K units)” value is 15 fold in series [1] (presence of Ca2+) and 11 fold in series [1] (presence of EGTA). In addition, the “increase in the catalytic efficiency (Vmax/Km) of t-PA” value is on record as 7.6 fold in series [1] (presence of EGTA) and 10 fold in series [1] (presence of calcium). The “concentration of S100A4 from which angiogenesis is induced” value in series [2] is at least 10 nM. Also, in the series with annexin II, the “complex formation with annexin II” value is “capable of complex formation with annexin II”.

The record behind these values is patent US20050277575A1, “Therapeutic compositions and methods for treating diseases that involve angiogenesis” (priority 2004, published 2005).
